The values below come from patent US20040146949A1, “Methods and compounds for disruption of CD40R/CD40L signaling in the treatment of alzheimer's disease” (priority 2002, published 2004).

Format in all cases: cell-based
Assay [1] concerns N2a cells overexpressing human wild-type APP-695. The assay can be described thus: secreted Aβ ELISA in conditioned media of N2a cells over-expressing APP-695. Particulars: for alterations in secretion of Aβ species: ligand controls for specificity, data not shown. The procedure: (§1) FIGS. 9a-f: CD40L modulates APP processing in vivo and in vitro. Fig. a: Brain homogenates were prepared from 12-month-old TgAPPsw/CD40L-deficient, control IgG-treated PSAPP, and anti-CD40L antibody-treated PSAPP animals. Representative lanes are shown from each mouse group. […] Fig. d: Cell lysates were prepared from N2a cells overexpressing human wild-type APP-695 and treated with 2 μg/mL of heat-inactivated CD40L (control) or CD40L protein (CD40 ligation) for 24 hours. […] Fig. f: A-β1-40 and A-β1-42 peptides were analyzed in conditioned media from human wild-type APP-695 overexpressing N2a cells by ELISA (n=3 for each condition). Data are represented as percentage of Aβ peptide secreted 24 hours after CD40 ligation relative to heat-inactivated CD40L treatment. […] Similar results were obtained with antibody 6687 or Chemicon polyclonal APP C-terminal antibody (data not shown).
(§2) We also employed an N2a cell line that stably over-expresses the human wild-type APP-695 transgene (Thinakaran, G., et al., “Metabolism of the Swedish’ amyloid precursor protein variant in neuro2a (N2a) cells, Evidence that cleavage at the ‘beta-secretase’ site occurs in the golgi apparatus,” J. Biol. Chem. 271, 9390-9397 (1996)). […] This effect could be alleviated by co-treatment with anti-CD40L antibody, as we detected anti-CD40L antibody in brains of treated PSAPP mice. To determine whether an incrreased ratio of β-CTF to α-CTF after CD40L treatment might be associated with secretion of Aβ, we measured the latter in conditioned transfected N2a cell media by ELISA. […] To confirm the specificity of this effect, we treated these cells with other TNF ligand superfamily members TNF-α or Fas ligand the additional control ligands transforming growth factor-β1 or neurotrophin.
ELISA analysis (FIGS. 8-9). Mouse brains (Control, Tg APPsw, CD40L def., and Tg APPsw/CD40L def.) were isolated under sterile conditions on ice and placed in ice-cold lysis buffer (containing 20 mM Tris, pH 7.5, 150 mM NaCl, 1 mM EDTA, 1 mM EGTA, 1% v/v Triton X-100, 2.5 mM sodium pyrophosphate, 1 mM β-glycerolphosphate, 1 mM Na3VO4, 1 µg/mL leupeptin, and 1 mM PMSF). Brains were then sonicated on ice for approximately 3 minutes, let stand for 15 minutes at 4° C., and centrifuged at 15,000 rpm for 15 minutes. Total Aβ species were detected by acid extraction of brain homogenates in 5 M guanidine buffer (Johnson-Wood, K. et al., “Amyloid precursor protein processing and A beta42 deposition in a transgenic mouse model of Alzheimer disease,” Proc. Natl. Acad. Sci USA 94, 1550-1555 (1997)), followed by a 1:10 dilution in lysis buffer. Aβ1-40 and Aβ1-42 and total Aβ (estimated by summing Aβ1-40 and Aβ1-42 values) were quantified in these samples using the Aβ1-40 and Aβ1-42 enzyme-linked immunosorbent assay (ELISA) kits (BioSource, Camarillo, Calif., USA) in accordance with the manufacurer's instruction, except that standards were diluted such that the final concentration included 0.5 M guanidine buffer. Total protein was quantified in brain homogenates using the Bio-Rad protein assay (Bio-Rad, Richmond, Calif., USA); thus, ELISA values were reported as ng of Aβ1-x/wet g of brain. For in vitro analysis of Aβ levels, conditioned media from human APP-over-expressing N2a cells were collected and analyzed at a 1:1 dilution using the method described above, and values were rreported as percentage of Aβ1-x secreted relative to control. […]

The test system is the same in assay [2]. The experiment in a line: APP CTFs by Western blot in N2a cells over-expressing APP-695. Particulars: for alterations in APP CTFs: ligand controls for specificity, data not shown. The procedure:
as §1, §2
Western blot (FIGS. 8-9). Mouse brains or cultured cells were lysed in ice-cold lysis buffer as described above, and an aliquot corresponding to 50 μg of total protein was electrophoretically separated using 16.5% Tris-tricine gels (Bio-Rad). Electrophoresed proteins were then transferred to PVDF membranes (Bio-Rad), washed in dH20, and blocked for 1 hour at ambient temperature in Tris-buffered saline (TBS) containing 5% (w/v) of non-fat dry milk. After blocking membranes were hybridized for 1 hour at ambient temperature with various antibodies against the C-terminus of APP or the N-terminus of Aβ. […] Densitometric analysis was performed using the Fluor-S Multilmager™ with Quantity One™ software (Bio-Rad). […] Further β- and γ-secretase activities were quantified in Tg APPsw and Tg APPsw/CD40L def. mice using available kits based on secretase-specific peptides conjugated to fluorgenic reporter molecules (R&D Systems, Minneapolis, Minn., USA). […]

For assay [3], the system named is N2a cell line that stably overexpresses the human wild-type APP-751 transgene. The assay can be described thus: secreted Aβ in conditioned media of N2a cells overexpressing APP-751. The note with it: CD40L treatment over time. The source says: We have recently identified CD40 on neurons and neuron-like cells (including the N2a neuroblastoma cell line), and have shown that neuronal CD40 is functional, being intimately involved in neuronal development, survival, and maturation (Tan et al., “CD40 is expressed and functional on neuronal cells,” EMBO J. (2002) 21:643-52). Given our in vivo findings, we wished to determine whether CD40L could directly act on neurons to modulate APP processing. […] To confirm whether this reduction in α-CTF might be associated with amyloidogenic processing of APP, we measured secreted Aβ in conditioned media. […]
ELISA analysis. […] Total Aβ species were detected by acid extraction of brain homogenates in 5 M guanidine buffer (Johnson-Wood et al., “Amyloid precursor protein processing and A beta42 deposition in a transgenic mouse model of Alzheimer disease,” Proc. Natl. Acad. Sci. USA (1997) 94:1550-55), followed by a 1:10 dilution in lysis buffer. Aβ1-40, Aβ1-42, and total Aβ (estimated by summing Aβ1-40 and Aβ1-42 values) were quantified in these samples using the Aβ1-40 and Aβ1-42 enzyme-linked immunosorbent assay (ELISA) kits (QCB) in accordance with the manufacturer's instruction, except that standards were diluted such that the final concentration included 0.5 M guanidine buffer. […]

Assay [4] shares this test system. The experiment in a line: α-CTF by Western blot in N2a cells overexpressing APP-751. The note with it: CD40L treatment over time. An excerpt: We have recently identified CD40 on neurons and neuron-like cells (including the N2a neuroblastoma cell line), and have shown that neuronal CD40 is functional, being intimately involved in neuronal development, survival, and maturation (Tan et al., “CD40 is expressed and functional on neuronal cells,” EMBO J. (2002) 21:643-52). Given our in vivo findings, we wished to determine whether CD40L could directly act on neurons to modulate APP processing. An N2a cell line was established that stably overexpresses (by ˜3 fold) the human wild-type APP-751 transgene (Xia et al., “Enhanced production and oligomerizatio of the 42-residue amyloid beta-protein by Chinese hamster ovary cells stably expressing mutant presenilins,” J. Biol. Chem. (1997) 272:7977-82). […] To confirm whether this reduction in α-CTF might be associated with amyloidogenic processing of APP, we measured secreted Aβ in conditioned media. […] Thus CD40L is able to directly promote amyloidogenic APP processing in neurons or neuron-like cells. […] As the vast majority of cases of AD are associated with accumulation of Aβ from a normal APP sequence, the observation that the processing of normal APP can be pushed towards amyloidogenicity by CD40L is of interest. […]
Western blot. […] Densitometric analysis was perfromed using the Fluor-S Multilmager™ with Quantity One™ software (Bio-Rad). […]

The mark [5] stands for this setting: 24 hour treatment, 2 μg/mL, relative to heat-inactivated CD40L.

For TNF-α [reference compound], in assay [1], the “alterations in secretion of Aβ species” value was “did not observe alterations”. The “alterations in APP CTFs” value in assay [2] is recorded as “did not observe alterations”.
As to “transforming growth factor-β1: additional control ligand [reference compound]”, the “alterations in secretion of Aβ species” value in assay [1] was “did not observe alterations”. For the same molecule, the “alterations in APP CTFs” value in assay [2] was “did not observe alterations”.

B1: CD40L: CD40L protein (CD40 ligation) added to N2a cells at 2 μg/mL (protein, UniProt P29965 113-261, looked up)
CD40 ligand, soluble form: MQKGDQNPQIAAHVISEASSKTTSVLQWAEKGYYTMSNNLVTLENGKQLTVKRQGLYYIYAQVTFCSNREASSQAPFIASLCLKSPGRFERILLRAANTHSSAKPCGQQSIHLGGVFELQPGASVFVNVTDPSQVSHGTGFTSFGLLKL
In the case of B1, in assay [1] (setting [5]), the “increase in secreted Aβ1-40 levels” value is on record as about 85% and the “increase in secreted Aβ1-42 levels” value is listed as about 50%. Moreover, in assay [3], the “secreted Aβ1-40 levels in conditioned media” value is on record as “time-dependent increase” and the “secreted Aβ1-42 levels in conditioned media” value is given as “time-dependent increase”. The “α-CTF by Western blot” value in assay [4] is on record as “time-dependent decrease”. In addition, in assay [2] (2 μg/mL, serum-free conditions, 24 hours, versus heat-inactivated CD40L), the “ratio of APP β-CTF to α-CTF” value is given as “increased ratio”.

B2: Fas ligand: other TNF ligand superfamily member used as ligand control (protein, UniProt P48023 130-281, looked up)
Tumor necrosis factor ligand …: QIGHPSPPPEKKELRKVAHLTGKSNSRSMPLEWEDTYGIVLLSGVKYKKGGLVINETGLYFVYSKVYFRGQSCNNLPLSHKVYMRNSKYPQDLVMMEGKMMSYCTTGQMWARSSYLGAVFNLTSADHLYVNVSELSLVNFEESQTFFGLYKL
For B2, the “alterations in secretion of Aβ species” value in assay [1] was “did not observe alterations”. Besides, the “alterations in APP CTFs” value in assay [2] is on record as “did not observe alterations”.
